Patent publication US20030202938A1 (UNIVERSITY OF MEDICINE AND DENTISTRY OF NEW JERSEY, published 2003)

Target: T1, bovine serum albumin (bovine, UniProt P02769 25-607)
T1 construct: also called BSA
Experiment: SELDI-TOF ProteinChip, protein covalently bound to PS-1 chip, SP added
Procedure: HGFIN-SP interaction was studied by pre-treating the PS1 chips with 50% acetonitrile for 3 min. After this, the chips were incubated for 45 min with the following: 2.5 μg HGFIN (experimental sample), anti-Id2, an unrelated IgG regarding its ability to complex with SP and was therefore treated as a negative control, rabbit anti-SP (positive control) or 20 ng fibronectin, fragment III-C (positive control). The arrays were blocked for 25 min with 1M ethanolamine and washed with PBS+0.5% Triton X (2×) and a final PBS wash step. After this the chips were washed with PBS+Triton-x, PBS, rinsed with 5 mM Hepes and then dried. CHCA was applied and the non-covalently bound SP was detected with the SELDI-Time of Flight Mass spectrometer as described for the profiling studies for HGFIN.
Fibronectin has been reported to bind SP. Therefore, this property of fibronectin was used as a positive control for SP interaction on the SELDI system. […] Similar results were shown with another positive control: rabbit anti-SP (covalently bound) and SP (FIG. 4C, lower chromatogram). No peak was detected in two negative controls, which consisted of bovine serum albumin or an unrelated antibody (anti-Id2) covalently bound to the surface of PS-1.

T1 sequence (P02769 25-607 limits assumed): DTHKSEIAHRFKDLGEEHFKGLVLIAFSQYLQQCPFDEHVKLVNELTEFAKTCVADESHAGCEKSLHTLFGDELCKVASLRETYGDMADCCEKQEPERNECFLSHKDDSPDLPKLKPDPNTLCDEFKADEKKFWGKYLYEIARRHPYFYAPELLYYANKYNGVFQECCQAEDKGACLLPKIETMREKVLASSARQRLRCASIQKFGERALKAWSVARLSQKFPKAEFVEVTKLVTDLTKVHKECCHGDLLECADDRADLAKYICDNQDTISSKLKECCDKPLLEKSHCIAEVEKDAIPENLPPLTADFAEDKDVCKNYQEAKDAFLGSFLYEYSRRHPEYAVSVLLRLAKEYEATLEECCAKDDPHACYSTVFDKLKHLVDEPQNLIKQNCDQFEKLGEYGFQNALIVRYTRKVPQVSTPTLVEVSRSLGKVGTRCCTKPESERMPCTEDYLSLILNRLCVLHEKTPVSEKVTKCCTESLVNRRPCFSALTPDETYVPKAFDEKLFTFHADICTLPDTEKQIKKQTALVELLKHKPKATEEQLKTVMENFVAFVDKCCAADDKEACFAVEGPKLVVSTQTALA

B1: Substance P (peptide, UniProt P20366 58-68, looked up)
peptide: RPKPQQFFGLM
notes: Substance P is an 11-residue peptide cut from it; 2 ug was added to the chips; also called SP
B1: no binding.
